B1: Phototropin-1 (Arabidopsis thaliana (Mouse-ear cress)), O48963 (parent)
chain: MEPTEKPSTKPSSRTLPRDTRGSLEVFNPSTQLTRPDNPVFRPEPPAWQNLSDPRGTSPQPRPQQEPAPSNPVRSDQEIAVTTSWMALKDPSPETISKKTITAEKPQKSAVAAEQRAAEWGLVLKTDTKTGKPQGVGVRNSGGTENDPNGKKTTSQRNSQNSCRSSGEMSDGDVPGGRSGIPRVSEDLKDALSTFQQTFVVSDATKPDYPIMYASAGFFNMTGYTSKEVVGRNCRFLQGSGTDADELAKIRETLAAGNNYCGRILNYKKDGTSFWNLLTIAPIKDESGKVLKFIGMQVEVSKHTEGAKEKALRPNGLPESLIRYDARQKDMATNSVTELVEAVKRPRALSESTNLHPFMTKSESDELPKKPARRMSENVVPSGRRNSGGGRRNSMQRINEIPEKKSRKSSLSFMGIKKKSESLDESIDDGFIEYGEEDDEISDRDERPESVDDKVRQKEMRKGIDLATTLERIEKNFVITDPRLPDNPIIFASDSFLELTEYSREEILGRNCRFLQGPETDLTTVKKIRNAIDNQTEVTVQLINYTKSGKKFWNIFHLQPMRDQKGEVQYFIGVQLDGSKHVEPVRNVIEETAVKEGEDLVKKTAVNIDEAVRELPDANMTPEDLWANHSKVVHCKPHRKDSPPWIAIQKVLESGEPIGLKHFKPVKPLGSGDTGSVHLVELVGTDQLFAMKAMDKAVMLNRNKVHRARAEREILDLLDHPFLPALYASFQTKTHICLITDYYPGGELFMLLDRQPRKVLKEDAVRFYAAQVVVALEYLHCQGIIYRDLKPENVLIQGNGDISLSDFDLSCLTSCKPQLLIPSIDEKKKKKQQKSQQTPIFMAEPMRASNSFVGTEEYIAPEIISGAGHTSAVDWWALGILMYEMLYGYTPFRGKTRQKTFTNVLQKDLKFPASIPASLQVKQLIFRLLQRDPKKRLGCFEGANEVKQHSFFKGINWALIRCTNPPELETPIFSGEAENGEKVVDPELEDLQTNVF
partner: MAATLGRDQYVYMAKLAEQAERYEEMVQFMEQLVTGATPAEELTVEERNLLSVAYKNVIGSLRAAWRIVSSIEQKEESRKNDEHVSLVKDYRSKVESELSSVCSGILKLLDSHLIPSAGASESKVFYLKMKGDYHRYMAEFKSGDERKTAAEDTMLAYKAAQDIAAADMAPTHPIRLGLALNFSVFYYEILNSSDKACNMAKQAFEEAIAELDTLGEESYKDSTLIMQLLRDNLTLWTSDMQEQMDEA
B2: Phototropin-1 (Arabidopsis thaliana (Mouse-ear cress)), O48963 (parent)
chain: B1 chain
partner: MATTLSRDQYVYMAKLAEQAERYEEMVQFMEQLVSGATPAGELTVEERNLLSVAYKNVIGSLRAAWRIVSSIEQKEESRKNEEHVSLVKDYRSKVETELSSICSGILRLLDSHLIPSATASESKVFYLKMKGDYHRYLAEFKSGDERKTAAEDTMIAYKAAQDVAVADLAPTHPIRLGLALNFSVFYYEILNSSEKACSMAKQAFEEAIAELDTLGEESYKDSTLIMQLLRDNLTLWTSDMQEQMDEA

Variants of: B1
Settings: with 14336_arath GRF6, P48349

Variant	effect of a mutation on the interaction
S350A	decreasing interaction

Variants of: B1
Settings: with 14336_arath GRF6, P48349
Remark: another data set of the same source

Variant	effect of a mutation on the interaction
S350A	disrupting interaction
S376A	disrupting interaction

Variants of: B1
Settings: with 14336_arath GRF6, P48349
Remark: another data set of the same source

Variant	effect of a mutation on the interaction
S376A	decreasing interaction

Variants of: B1
Settings: with 14336_arath GRF6, P48349
Remark: another data set of the same source

Variant	effect of a mutation on the interaction
S410A	disrupting interaction

Variants of: B2
Settings: with 14338_arath GRF8, P48348

Variant	effect of a mutation on the interaction
S410A	disrupting interaction
S376A	disrupting interaction
S350A	disrupting interaction

Source: IntAct's records for PubMed 19524572
